This note sets out measurements from paper PMC11087511.

The target in series [1] is T1, human alpha-thrombin (human, UniProt P00734;P00734 328-363;364-622). As to the kind of experiment: BLI; not given in the material (Methods for BLI and fluorogenic assay are headings only). (In general: BLI is a label-free optical method that tracks binding on a fibre tip over time.)
Series [2] addresses T1, human alpha-thrombin. As to the kind of experiment: inhibition of fluorogenic peptide cleavage; maximum inhibition 30%; not given in the material (Methods for BLI and fluorogenic assay are headings only).
The target in series [3] is T1, human alpha-thrombin. As to the kind of experiment: BLI; kon 3.9e7 M-1s-1, koff 2.1e-3 s-1; DAB moiety binds active site; not given in the material (Methods for BLI and fluorogenic assay are headings only).
The target in series [4] is thrombin S195A (UniProt P00734;P00734 315-363;364-622, S568A). As to the kind of experiment: X-ray crystallography; 2.2 A; Na+; DAB in S1 pocket, aptamer at exosite 2; not given in the material (Methods for BLI and fluorogenic assay are headings only).
Series [5] concerns the target T1, human alpha-thrombin. As to the kind of experiment: inhibition of fluorogenic peptide cleavage; DAB moiety contributes; max inhibition >99%; not given in the material (Methods for BLI and fluorogenic assay are headings only).
For series [6], the target named is T1, human alpha-thrombin. As to the kind of experiment: inhibition of fluorogenic peptide cleavage; maximum inhibition 55%; not given in the material (Methods for BLI and fluorogenic assay are headings only).

Regarding AAAAAAAAGTCCGTAATAAAGCAGGTTAAAATGACT (ssDNA, 5' C6-amine) [Bio-HD23-7A-NH2], the binding result in series [1] was “no binding”. In series [2], AGTCCGTGGTAGGGCAGGTTGGGGTGACT (structured_DNA) [HD22] returned an IC50 of 0.95 nM. In the case of AAAAAAAAGTCCGTGGTAGGGCAGGTTGGGGTGACT (structured_DNA, 5' C6-dabigatran) [Bio-HD22-7A-DAB], binding in series [3] was put at a Kd of 0.054 nM.

For the molecule AAAAAAAAGTCCGTGGTAGGGCAGGTTGGGGTGACT (structured_DNA, 5' C6-dabigatran) [HD22-7A-DAB], the binding result in series [4] is given as “binds”. In series [5], the half-inhibitory concentration (IC50) was 0.1 nM. Consider AGTCCGTGGTAGGGCAGGTTGGGGTGACT (structured_DNA, 5' C6-dabigatran) [HD22-0A-DAB], for which 0.55 nM corresponded to half-maximal inhibition in series [6] (IC50).

A word on the IC50: it is the concentration needed to halve the response being measured. A high value points to a need for much substance. What is called Kd is the constant that tells how readily two partners part at equilibrium.
